From EP1106701A1

Tests used:
[1] = target: standard human trypsin sample enclosed in the Kodazyme Trypsin M·EIA kit (human); experiment: Kodazyme Trypsin M·EIA sandwich EIA, standard human trypsin 10 ng/ml
[2] = target: standard human trypsin sample enclosed in the Kodazyme Trypsin M·EIA kit (human); experiment: Kodazyme Trypsin M·EIA sandwich EIA, standard human trypsin 50 ng/ml
[3] = target: canine anionic trypsin (canine (dog)); experiment: Kodazyme Trypsin M·EIA sandwich EIA, canine anionic trypsin 25 ng/ml
[4] = target: canine anionic trypsin (canine (dog)); experiment: Kodazyme Trypsin M·EIA sandwich EIA, canine anionic trypsin 50 ng/ml
[5] = target: standard human trypsin sample enclosed in the Kodazyme Trypsin M·EIA kit (human); experiment: Kodazyme Trypsin M·EIA sandwich EIA, standard human trypsin 100 ng/ml
[6] = target: standard human trypsin sample enclosed in the Kodazyme Trypsin M·EIA kit (human); experiment: Kodazyme Trypsin M·EIA sandwich EIA, standard human trypsin 200 ng/ml
[7] = target: standard human trypsin sample enclosed in the Kodazyme Trypsin M·EIA kit (human); experiment: Kodazyme Trypsin M·EIA sandwich EIA, standard human trypsin 400 ng/ml
[8] = target: standard human trypsin sample enclosed in the Kodazyme Trypsin M·EIA kit (human); experiment: Kodazyme Trypsin M·EIA sandwich EIA, standard human trypsin 600 ng/ml
[9] = target: canine cationic trypsin (canine (dog)); experiment: Kodazyme Trypsin M·EIA sandwich EIA, canine cationic trypsin 25 ng/ml
[10] = target: canine cationic trypsin (canine (dog)); experiment: Kodazyme Trypsin M·EIA sandwich EIA, canine cationic trypsin 50 ng/ml
[11] = target: canine anionic trypsin (canine (dog)); experiment: Kodazyme Trypsin M·EIA sandwich EIA, canine anionic trypsin 100 ng/ml
[12] = target: canine anionic trypsin (canine (dog)); experiment: Kodazyme Trypsin M·EIA sandwich EIA, canine anionic trypsin 200 ng/ml
[13] = target: canine anionic trypsin (canine (dog)); experiment: Kodazyme Trypsin M·EIA sandwich EIA, canine anionic trypsin 400 ng/ml
[14] = target: canine cationic trypsin (canine (dog)); experiment: Kodazyme Trypsin M·EIA sandwich EIA, canine cationic trypsin 100 ng/ml
[15] = target: canine cationic trypsin (canine (dog)); experiment: Kodazyme Trypsin M·EIA sandwich EIA, canine cationic trypsin 200 ng/ml
[16] = target: canine cationic trypsin (canine (dog)); experiment: Kodazyme Trypsin M·EIA sandwich EIA, canine cationic trypsin 400 ng/ml
[17] = target: canine anionic trypsin (canine (dog)); experiment: Kodazyme Trypsin M·EIA sandwich EIA, canine anionic trypsin 12.5 ng/ml
[18] = target: canine anionic trypsin (canine (dog)); experiment: Kodazyme Trypsin M·EIA sandwich EIA, canine anionic trypsin 6.25 ng/ml
[19] = target: canine cationic trypsin (canine (dog)); experiment: Kodazyme Trypsin M·EIA sandwich EIA, canine cationic trypsin 12.5 ng/ml
[20] = target: canine cationic trypsin (canine (dog)); experiment: Kodazyme Trypsin M·EIA sandwich EIA, canine cationic trypsin 6.25 ng/ml
[21] = target: standard human trypsin sample enclosed in the Kodazyme Trypsin M·EIA kit (human); experiment: Kodazyme Trypsin M·EIA sandwich EIA, standard human trypsin 10 ng/ml, duplicate
[22] = target: standard human trypsin sample enclosed in the Kodazyme Trypsin M·EIA kit (human); experiment: Kodazyme Trypsin M·EIA sandwich EIA, standard human trypsin 50 ng/ml, duplicate
[23] = target: canine anionic trypsin (canine (dog)); experiment: Kodazyme Trypsin M·EIA sandwich EIA, canine anionic trypsin 25 ng/ml, duplicate
[24] = target: canine anionic trypsin (canine (dog)); experiment: Kodazyme Trypsin M·EIA sandwich EIA, canine anionic trypsin 50 ng/ml, duplicate
[25] = target: standard human trypsin sample enclosed in the Kodazyme Trypsin M·EIA kit (human); experiment: Kodazyme Trypsin M·EIA sandwich EIA, standard human trypsin 200 ng/ml, duplicate
[26] = target: standard human trypsin sample enclosed in the Kodazyme Trypsin M·EIA kit (human); experiment: Kodazyme Trypsin M·EIA sandwich EIA, standard human trypsin 400 ng/ml, duplicate
[27] = target: canine cationic trypsin (canine (dog)); experiment: Kodazyme Trypsin M·EIA sandwich EIA, canine cationic trypsin 25 ng/ml, duplicate
[28] = target: canine cationic trypsin (canine (dog)); experiment: Kodazyme Trypsin M·EIA sandwich EIA, canine cationic trypsin 50 ng/ml, duplicate
[29] = target: canine anionic trypsin (canine (dog)); experiment: Kodazyme Trypsin M·EIA sandwich EIA, canine anionic trypsin 100 ng/ml, duplicate
[30] = target: canine anionic trypsin (canine (dog)); experiment: Kodazyme Trypsin M·EIA sandwich EIA, canine anionic trypsin 200 ng/ml, duplicate
[31] = target: canine anionic trypsin (canine (dog)); experiment: Kodazyme Trypsin M·EIA sandwich EIA, canine anionic trypsin 400 ng/ml, duplicate
[32] = target: canine cationic trypsin (canine (dog)); experiment: Kodazyme Trypsin M·EIA sandwich EIA, canine cationic trypsin 100 ng/ml, duplicate
[33] = target: canine cationic trypsin (canine (dog)); experiment: Kodazyme Trypsin M·EIA sandwich EIA, canine cationic trypsin 200 ng/ml, duplicate
[34] = target: canine cationic trypsin (canine (dog)); experiment: Kodazyme Trypsin M·EIA sandwich EIA, canine cationic trypsin 400 ng/ml, duplicate
[35] = target: canine anionic trypsin (canine (dog)); experiment: Kodazyme Trypsin M·EIA sandwich EIA, canine anionic trypsin 12.5 ng/ml, duplicate
[36] = target: canine anionic trypsin (canine (dog)); experiment: Kodazyme Trypsin M·EIA sandwich EIA, canine anionic trypsin 6.25 ng/ml, duplicate
[37] = target: canine cationic trypsin (canine (dog)); experiment: Kodazyme Trypsin M·EIA sandwich EIA, canine cationic trypsin 12.5 ng/ml, duplicate
[38] = target: canine cationic trypsin (canine (dog)); experiment: Kodazyme Trypsin M·EIA sandwich EIA, canine cationic trypsin 6.25 ng/ml, duplicate

human trypsin MAb of Kodazyme Trypsin M·EIA (antibody)
A492 [1]: 0.065
A492 [2]: 0.224
A492 [3]: 0.023
A492 [4]: 0.021
A492 [5]: 0.399
A492 [6]: 0.538
A492 [7]: 1.15
A492 [8]: 1.58
A492 [9]: 0.023
A492 [10]: 0.017
A492 [11]: 0.02
A492 [12]: 0.023
A492 [13]: 0.032
A492 [14]: 0.029
A492 [15]: 0.017
A492 [16]: 0.021
A492 [17]: 0.02
A492 [18]: 0.023
A492 [19]: 0.021
A492 [20]: 0.048
A492 [21]: 0.131
A492 [22]: 0.202
A492 [23]: 0.021
A492 [24]: 0.02
A492 [25]: 0.697
A492 [26]: 0.953
A492 [27]: 0.018
A492 [28]: 0.017
A492 [29]: 0.022
A492 [30]: 0.019
A492 [31]: 0.038
A492 [32]: 0.019
A492 [33]: 0.015
A492 [34]: 0.019
A492 [35]: 0.024
A492 [36]: 0.023
A492 [37]: 0.019
A492 [38]: 0.019
